In the supplement of paper PMC10567573:
± gives the standard deviation.

Assay: protein stability index of a GFP-peptide fusion (GPS, HEK-293T) (PSI 1-6); higher = more stable
Conditions: c terminus: a fixed tail appended
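Also: 24-mer peptide tiles fused after GFP, lentivirally expressed, FACS-sorted into six equal bins by GFP/DsRed ratio, decoded by Illumina sequencing, PSI is the read-weighted mean bin number.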

Sequence | protein stability index (treatment: DMSO) | protein stability index (treatment: MLN4924 1 uM, 8 h)
KLLHIYYQNSIDDRLLVERIFAQY [PDS5B] | 2.68 ± 0.63 | 3.39 ± 0.59
KLLNRCCHLFSTYVASHKIEKEEQ [ACBD3] | 2.21 ± 0.1 | 2.23 ± 0.28
KLLQGEEERLKLSPSPSSRVTVSR [LMNB1] | 4.13 ± 0.23 | 4.13 ± 0.3
KMEIYQKENKDVIQKNKLKLTREQ [MNAT1] | 3.89 ± 0.41 | 4.16 ± 0.34
KMELGIDLLAYGAKAELPKYKSFN [MYOZ1] | 2.59 ± 0.23 | 2.77 ± 0.24
KMFLRTREPALDGGFQMHYEKTPF [EID1] | 2.83 ± 0.25 | 3.05 ± 0.4
KNELERDSKIVVPPLPGKALKRQL [SNX12] | 4.5 ± 0.26 | 4.56 ± 0.2
KNEVGGLIKALKIFQEKHVNLLHI [TPH1] | 2.02 ± 0.43 | 2.12 ± 0.011
KNIVIADFVMSLTFPFKILGDSGL [P2RY14] | 3.04 ± 0.65 | 2.99 ± 0.38
KNLYTNEYVAIKLEPMKSRAPQLH [CSNK1G3] | 2.55 ± 0.28 | 2.5 ± 0.13
KPGNNEGSGAPSPLSKSSPATTVT [SNAP91] | 5.21 ± 0.11 | 5.1 ± 0.13
KPGPITLTVAKCWDPSPRGCFTLP [DVL3] | 2.41 ± 0.32 | 2.59 ± 0.11
KPLDLSDSTLSYTETEATNSLITA [SMAD6] | 4.82 ± 0.2 | 4.92 ± 0.059
KQPPLSTVPADGYILELDDGNGGQ [TRIM9] | 5.07 ± 0.12 | 5.07 ± 0.2
KQQRNEVSFVIHNLPIIAKMAAVS [SEPHS2] | 2.51 ± 0.61 | 2.35 ± 0.36
KRPAWGSRRFEAVGWWALLALVTL [POMT2] | 2.64 ± 0.71 | 2.29 ± 0.24
KSNVLKLKTADWRVFLFQAPSKEE [PSD2] | 2.33 ± 0.077 | 2.44 ± 0.28
KSSLIWSYPAGSLTFPVRPFFYTG [TRIM43] | 2.19 ± 0.26 | 2.08 ± 0.18
KWDAENAIQQMGGQWLGGRQIRTN [TIA1] | 3.51 ± 0.28 | 3.56 ± 0.3
KYENELALRQSVEADINGLRRVLD [KRT13] | 3.57 ± 0.17 | 3.65 ± 0.29
KYLVEHKADLEVSNRHGHTCLMIS [FEM1C] | 2.53 ± 0.12 | 2.67 ± 0.23
LAARRQWRDECLMRLAKLKSQVQP [CRYL1] | 2.35 ± 0.36 | 2.52 ± 0.79
LALRQGVEADINGLRRVLDELTLA [KRT15] | 2.51 ± 0.26 | 2.65 ± 0.4

Sequence | protein stability index (treatment: DMSO) | protein stability index (treatment: MLN4924 1 uM, 8 h)
LAPIHKLEEALYEYQPLQIETYGP [MNAT1] | 2.41 ± 0.46 | 2.71 ± 0.49
LASSLGNLNAATDDPENKKTSSSS [CDC14A] | 5.43 ± 0.15 | 5.53 ± 0.15
LCLDLAPSETGNTFVSGGCDKKAM [GNB5] | 3.96 ± 0.15 | 4.02 ± 0.17
LDELLGRGMATKLLARPGTGEHRE [FBF1] | 3.75 ± 0.17 | 4.09 ± 0.29
LDPRYKRLPFLSAFERQQVENRVV [ZBED1] | 3.36 ± 0.091 | 3.47 ± 0.13
LDSCKQLTLAQGAGEEDPSGMVTI [SMG5] | 4.46 ± 0.16 | 4.49 ± 0.4
LDVTVQSFGWSDRAKVKTDDIARI [FAM98B] | 2.98 ± 0.28 | 2.89 ± 0.36
LEDKLRLLAQARDEAQGACLQQKQ [LRRC45] | 4.49 ± 0.33 | 4.19 ± 0.22
LEEVNDEGYTPLMEAAREGHEEMV [ANKRD17] | 5.49 ± 0.08 | 5.52 ± 0.23
LEEYITDEQKEEEEEEGEEEELIR [FAM9B] | 5.37 ± 0.15 | 5.59 ± 0.33
LEGYISNLRKQLETLSGDRVRLDS [KRT71] | 3.17 ± 0.4 | 3.26 ± 0.35
LEMCVDARTFGNEARFIRRSCTPN [KMT2E] | 3.19 ± 0.21 | 3.13 ± 0.16
LENVLDPDSFYELKSQPLPLRSSL [TFE3] | 3.4 ± 0.27 | 3.49 ± 0.21
LEPAQRPPLSHIMAQPLCIRALLN [NEK8] | 3.35 ± 0.21 | 3.48 ± 0.16
LEPGSADPLANGCQGVSEAAHRLA [PSD2] | 5.22 ± 0.075 | 5.23 ± 0.24
LETEQGKPFVSVFRHLRLQYIISD [GMCL1] | 2.21 ± 0.56 | 2.05 ± 0.33
LFGFSAVSIMYLVLVLAVQVHAWQ [JAGN1] | 3.8 ± 0.15 | 2.97 ± 0.39
LFRKDVDDATLSRLELERKIESLM [PRPH] | 3.06 ± 0.22 | 3.33 ± 0.29
LFYSAEVEMLCDQAWGSMLEVPAG [CCDC3] | 1.92 ± 0.53 | 2.26 ± 0.41
LGCQGAQFVSSVPRCDLVDLGEGK [FAM189A2] | 4.31 ± 0.14 | 4.18 ± 0.13
LGIGMDSCVIPLRHGGLSLVQTTD [SEPHS2] | 2.8 ± 0.33 | 2.98 ± 0.4
LGLGSMIGTMAGITTPIIDTFKVP [SLC6A17] | 2.55 ± 0.12 | 2.51 ± 0.31
LGPLGSTAFLPDSKCLVDDGTGRM [GALNT9] | 3.89 ± 0.36 | 4.24 ± 0.21

Sequence | protein stability index (treatment: DMSO) | protein stability index (treatment: MLN4924 1 uM, 8 h)
LGPRDAGTRGRLESAQATFQAHRD [ARFIP2] | 4.62 ± 0.35 | 4.67 ± 0.27
LGSDYEQPLEVKNNSNLQRMGSSE [CDC25A] | 5.01 ± 0.19 | 4.94 ± 0.57
LGSQIKSLCNLEESITSAGRDDLE [FAM98B] | 4.63 ± 0.3 | 4.74 ± 0.17
LHGKAIKVEQAKKPSFQSGGRRRP [RBMY1A1] | 3.89 ± 0.2 | 4.21 ± 0.16
LHRLKFLGFARRNWGNGKRPNLET [GDAP1] | 2.22 ± 0.32 | 2.44 ± 0.45
LHVNGESLEMDSDEDDSEELEEDD [EHMT1] | 5.41 ± 0.26 | 5.28 ± 0.12
LIKEGGMPLLRDIIKMATARQETK [ZER1] | 2.69 ± 0.32 | 2.65 ± 0.38
LIKKKKEELEAKRLQCPFEQELLR [FAM107A] | 3.66 ± 0.12 | 3.71 ± 0.15
LIYTLKNAEMKSAMRKLWSKKVSL [OR4A15] | 2.41 ± 0.97 | 2.04 ± 0.12
LIYVVIDLPINVFKLLAGRWPFDH [EDNRA] | 2.27 ± 1 | 3.04 ± 0.23
LKAIIFFDPDAKGLSDPGKIKRLR [HNF4A] | 2.45 ± 0.33 | 2.37 ± 0.12
LKDDIYIRYQSFNNQSDLEKEMQK [PRIM1] | 4.41 ± 0.08 | 4.27 ± 0.26
LKEGMLMKIKQDRASRTYELQNQL [FSD1] | 3.05 ± 0.35 | 3.39 ± 0.19
LKEPLHKALQMLLSQPVTYQAFRE [BCL2L13] | 2.76 ± 0.085 | 2.77 ± 0.4
LKHPNIVRLHDSISEEGHHYLIFD [CAMK2A] | 2.58 ± 0.32 | 2.79 ± 0.25
LKSELGRKWHKASNYIFVAIFWIV [P2RY14] | 2.24 ± 0.61 | 2.31 ± 0.19
LKTSRKDVKDKETTENENTKFEVR [CHGB] | 5.03 ± 0.11 | 5.22 ± 0.092
LLELQSQQACTHTKETEQLRSQLQ [CCDC89] | 4.06 ± 0.32 | 4.29 ± 0.25
LLGAVNFFVSSINTLVTKTMEDTL [ARFIP2] | 3.13 ± 0.21 | 3.07 ± 0.26
LLLLLPTLQSITWQMIEQIQFIKL [HNF4A] | 3.58 ± 0.39 | 3.28 ± 0.28
LLMTADILAETGIRKTVKRLRKHQ [ELOA2] | 2.41 ± 0.31 | 2.84 ± 0.25
LLPMLDALRFTADVRSVLSRNLHQ [CTDNEP1] | 2.5 ± 0.37 | 2.1 ± 0.21
LLQRRKRENMSDGDTSATESGDEV [KMT2E] | 5.52 ± 0.17 | 5.32 ± 0.38

Sequence | protein stability index (treatment: DMSO) | protein stability index (treatment: MLN4924 1 uM, 8 h)
LLQTQHALGDAFADLSQKSPELQE [ARFIP2] | 4.7 ± 0.22 | 4.77 ± 0.21
LLSRFSVGIFHLMQIAVPCAFLLL [TMEM175] | 2.6 ± 0.35 | 2.24 ± 0.25
LLTNNSGTPKDHDSPENGADSFES [ETS2] | 5.2 ± 0.26 | 5.22 ± 0.12
LLVQFVCQEYLARNARIVHLVEET [CPXM2] | 3.82 ± 0.26 | 2.63 ± 0.95
LMTSKPAEVVKILQTMLRQSAFLH [INTS4] | 2.78 ± 0.41 | 2.43 ± 0.29
LNEDPLKWWSDRLALFPLLPKVLQ [ZBED1] | 2.2 ± 0.25 | 2.16 ± 0.1
LNKELNENQLVRKQDVLGPSTTPP [SASS6] | 5 ± 0.2 | 5.1 ± 0.071
LNQVADLLEQSLEEFAQAESKDQG [ALDH8A1] | 5.18 ± 0.14 | 5.21 ± 0.53
LNRSESDIRYLLGYVSQQGGQRST [FEM1B] | 3.73 ± 0.19 | 3.59 ± 0.33
LNYLVDPVTICCGHSFCRPCLCLS [TRIM43] | 2.26 ± 0.34 | 2.42 ± 0.23
LPAEARERSRGRSISRGRHARTHP [MATN2] | 5.05 ± 0.5 | 5.17 ± 0.23
LPDGCQPLQLLREMRQALQALLKE [CBY2] | 2.45 ± 0.35 | 2.51 ± 0.33
LPGRKLVSSAVSPSIIPQEDPSQQ [INTS4] | 5.12 ± 0.12 | 5.02 ± 0.32
LPGWEDIESKIPLNMEEPPVEEPE [SLC19A2] | 5.51 ± 0.32 | 5.24 ± 0.23
LPTDGSTGVELAPRSAEPGYLVTK [PCDHGA10] | 4.52 ± 0.17 | 4.66 ± 0.15
LPVSSPEPPPALPPAADAPVTQIG [TRIM55] | 5.23 ± 0.13 | 5.33 ± 0.12
LPYLEHVGHNHTYNMAPSALDSAD [NFE2L1] | 4.42 ± 0.15 | 4.44 ± 0.11
LQFLYTGQLDEKEKDLVGLAQIAE [RHOBTB1] | 2.38 ± 0.29 | 2.83 ± 0.25
LQLAIPRENAQISLDGDVTFFGAL [TNFSF13B] | 2.1 ± 0.32 | 2.17 ± 0.36
LQNEVRQLTEKLARVNENLARKIA [SSNA1] | 2.27 ± 0.29 | 2.2 ± 0.29
